We go through 7 molecules from US20240317840A1 (Novartis, published 2024).

Residue numbers refer to the chain shown, from its start. Read-outs that look alike come from different tables or passages of the source.

Usually IC50 stands for the midpoint of a concentration-inhibition curve. A low value points to greater potency. As usually defined, the Kd is the concentration at which binding is half-saturated. Lower therefore signals tighter binding. By EC50 (read off the curve) is commonly meant the concentration at which the effect is half-maximal. Low values mean an effect from little substance, high ones a need for much substance.

Experiment [1] addresses HBsAg of HBV genotype D, serotype ayw (Hepatitis B virus). The experiment can be described thus: cell-based or functional assay.
The target in experiment [2] is T1, HBsAg of HBV genotype A (AY934772) (Hepatitis B virus).
T1 construct: captured from supernatant by horse polyclonal anti-HBsAg
The experiment can be described thus: sandwich ELISA, captured HBsAg from culture supernatant. Background: An ELISA detects its analyte on a solid surface through an enzyme-linked reagent.
Experimental: (§1) The binding of anti-HBsAg antibodies to the 4 major genotypes (A-D) of HBV were analyzed by sandwich ELISA.

The target in experiment [3] is HBsAg of HBV genotype B (AF 121245) (Hepatitis B virus). The description is as above.
Experimental: as §1
Experiment [4] deals with HBsAg of HBV genotype C (DQ087960) (Hepatitis B virus). The experiment is described as above.
Experimental: as §1
For experiment [5], the target named is HBsAg clinical mutation D144A (Hepatitis B virus). The experiment in a line: sandwich ELISA, captured mutant HBsAg from culture supernatant.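 Also: Anti-HBsAg antibodies tested for binding to mutant HBsAg secreted by stably transfected cell lines, supernatant incubated 1 h on antibody-coated plates.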
Experimental: (§2) The binding of anti-HBsAg antibodies to 4 well characterized vaccine and/or HBsAg clinical mutations of HBsAg (G145R, D144A, T126S, M133L) were analyzed by sandwich ELISA. […] Supernatant collected from HBsAg cell-culture derived clinical mutation stables (G145R, D144A, T126S, M133L) was allowed to bind antibody coated plates for 1 hour.
Experiment [6] concerns the target HBsAg clinical mutation T126S (Hepatitis B virus). The experiment is described as above.
Experimental: as §2
The target in experiment [7] is HBsAg clinical mutation M133L (Hepatitis B virus). The description is as above.
Experimental: as §2
Experiment [8] addresses T2, HBsAg AD serotype (Hepatitis B virus).
T2 construct: also called HBsAg serotype AD
The experiment in a line: SPR Biacore T200, HBsAg particles immobilized, antibody as analyte, 1:1 fit.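 Also: Anti-HBsAg antibodies assessed for binding against both major HBsAg serotypes, AY and AD.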
Experimental: (§3) Binding affinity interaction (KD) of the anti-HBsAg antibodies with the two major serotypes of HBsAg, AY and AD, was determined utilizing surface plasma resonance (SPR) technology.

Experiment [9] concerns the target T3, HBsAg AY serotype (Hepatitis B virus).
T3 construct: also called HBsAg serotype AY
Described as above.
Experimental: as §3

Experiment [10] deals with HBsAg clinical mutation T126S (Hepatitis B virus). The experiment can be described thus: sandwich ELISA, mutant HBsAg from cell supernatant captured on horse polyclonal anti-HBsAg, antibody titrated, absorbance 450 nm.
The target in experiment [11] is HBsAg clinical mutation M133L (Hepatitis B virus). The description is as above.
The target in experiment [12] is HBsAg clinical mutation G145R (Hepatitis B virus). The experiment in a line: sandwich ELISA, captured mutant HBsAg from culture supernatant.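 Also: Anti-HBsAg antibodies tested for binding to mutant HBsAg secreted by stably transfected cell lines, supernatant incubated 1 h on antibody-coated plates.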
Experimental: as §2
In experiment [13] the target is HBsAg clinical mutation T126S (Hepatitis B virus). The experiment can be described thus: sandwich ELISA, mutant HBsAg from cell supernatant captured on horse polyclonal anti-HBsAg, antibody titrated, absorbance 450 nm. This is another data set of the same source.
Experiment [14] has as its target HBsAg clinical mutation M133L (Hepatitis B virus). Described as above. The source holds these as a separate data set.
For experiment [15], the target named is HBsAg clinical mutation T126S (Hepatitis B virus). The experiment is described as above. The source holds these as a separate data set.
The target of experiment [16] is HBsAg clinical mutation M133L (Hepatitis B virus). The experiment is described as above. This is another data set of the same source.
Experiment [17] has as its target HBsAg clinical mutation D144A (Hepatitis B virus). The experiment is described as above.
Experiment [18] concerns the target HBsAg clinical mutation T126S (Hepatitis B virus). The experiment is described as above. The source holds these as a separate data set.
Experiment [19] concerns the target HBsAg clinical mutation M133L (Hepatitis B virus). The experiment is described as above. The source holds these as a separate data set.
The target of experiment [20] is T2, HBsAg AD serotype. The experiment in a line: SPR epitope binning; competitor (1st, saturating Ab): HBC34.
Experimental: (§4) Epitope binning of anti-HBsAg antibodies with the two major serotypes of HBsAg, AY and AD, was performed utilizing surface plasmon resonance (SPR) technology. […] Each pair of antibodies was tested for blocking one another's binding to their epitope on the antigen by subsequently applying one antibody as first (saturating) followed by the other as second (competing) antibody and vice versa. Saturating antibodies were applied at 500 nM for 120s. Competing antibodies utilized the same conditions but were supplemented with the first antibody at 500 nM to maintain saturation. Binding signals were corrected by subtracting the reference cell signal. Specific binding of the competing antibody in presence of the saturating antibody was calculated by subtracting a saturating antibody plus buffer reference signal. All signals were normalized to 100 RU of immobilized ligand. The specific binding signal obtained from the application as competing antibody was expressed as percentage of the binding signal obtained from the application of the same antibody as saturating (first) antibody, the signal of which was regarded 100% binding.
Experiment [21] addresses T3, HBsAg AY serotype. Described as above.
Experimental: as §4
The target of experiment [22] is T2, HBsAg AD serotype. The experiment in a line: SPR epitope binning; competitor (1st, saturating Ab): CR8087.
Experimental: as §4
Experiment [23] has as its target T3, HBsAg AY serotype. The description is as above.
Experimental: as §4
The target of experiment [24] is HBsAg clinical mutation T126S (Hepatitis B virus). The experiment in a line: sandwich ELISA, mutant HBsAg from cell supernatant captured on horse polyclonal anti-HBsAg, antibody titrated, absorbance 450 nm. This is another data set of the same source.
The target of experiment [25] is HBsAg clinical mutation M133L (Hepatitis B virus). The description is as above. The source holds these as a separate data set.
Experiment [26] deals with HBsAg clinical mutation D144A (Hepatitis B virus). The experiment is described as above. The source holds these as a separate data set.
The target of experiment [27] is HBsAg clinical mutation T126S (Hepatitis B virus). The experiment is described as above. This is another data set of the same source.
Experiment [28] deals with HBsAg clinical mutation M133L (Hepatitis B virus). Described as above. This is another data set of the same source.
The target in experiment [29] is HBsAg clinical mutation T126S (Hepatitis B virus). Described as above. The source holds these as a separate data set.
Experiment [30] concerns the target HBsAg clinical mutation M133L (Hepatitis B virus). The experiment is described as above. The source holds these as a separate data set.

B1: NOV3837 (antibody, human IgG1, kappa, V domains shown)
VH: QVQLQESGGRLVRPGGSLRLSCAASGFIFTDYYMTWIRQAPGKGPEWIAFITSGGETTYYADSVKGRFTISRDNAKKSLFLQMYSLRADDTAVYYCVRAHFDGYQYDTRGDFTYYFDNWGLGTLVSVSS
VL: EIVMTQSPATLSVSPGERVTLSCRASQSVSSSLAWYQQKPGRAPRLLIYGASTRATGVPARFSGGGSGTDFTLTISSLQSEDFAVYYCHQYINWPPGDTFGQGTRLDIKR
notes: Full human IgG1 (kappa) expressed in CHO cells
Consider B1, for which the “Virus neutralization EC50” value in experiment [1] is 0.049 nM. For the same molecule, the IC50 in experiment [2] came out at 0.093 nM; in experiment [3], 0.069 nM; in [4] it was 0.17 nM; in [5], 0.27 nM; in experiment [6] it was 0.03 nM; in [7], 0.035 nM. Further, the dissociation constant (Kd) in experiment [8] amounted to 0.67 nM; in experiment [9], 0.75 nM. Moreover, the results for the “EC50 (read off the curve)” value in [10] and in [11] were approximately 0.03 nM and approximately 0.04 nM, respectively.

B2: NOV3838 (antibody, human IgG1, kappa, V domains shown)
VH: B1 VH with G103L
VL: B1 VL
notes: as for B1
With B2, in experiment [1], the “Virus neutralization EC50” value was 0.12 nM. Further, the IC50 amounted to 0.2 nM in experiment [2]; 0.05 nM in [3]; 0.21 nM in experiment [4]; 5.2 nM in experiment [12]; 6.1 nM in experiment [5]; 0.11 nM in experiment [6]. The concentration for half-maximal inhibition (IC50) in experiment [7] came to 0.15 nM. Also, the equilibrium dissociation constant (Kd) was determined as 0.68 nM in experiment [8] and 0.6 nM in experiment [9]. Further, the figures for the “EC50 (read off the curve)” value in experiment [13] and in experiment [14] were approximately 0.1 nM and approximately 0.2 nM, respectively.

B3: NOV3839 (antibody, human IgG1, kappa, V domains shown)
VH: B1 VH with G103I
VL: B1 VL
notes: as for B1
For the molecule B3, the “Virus neutralization EC50” value in experiment [1] is 0.09 nM. The IC50 was determined as 1.6 nM in [2]; 0.17 nM in experiment [3]; 0.37 nM in experiment [4]; 8.6 nM in [12]; 3.6 nM in experiment [5]; 0.088 nM in experiment [6]. The molecule also yielded a half-maximal inhibitory concentration (IC50) in [7] of 0.085 nM. Also, the Kd in experiment [8] is 0.59 nM; in [9], 2.4 nM. The half-maximal effective concentration (EC50 (read off the curve)) in [15] and in [16] was approximately 0.1 nM throughout.

B4: NOV3840 (antibody, human IgG1, lambda, V domains shown)
VH: EVQLLESGGGLVQPGGSRRLSCAASGFTFSYYGMNWVRQAPGKGLEWVSGITNSGSITYYADSVKGRFSISRDNSKNTLFLQMNSLRAEDTAVYYCAKVGVRSSSGMWDLDYWGQGTLVTVSS
VL: SYVLTQPPSVSVAPGQTARLSCGGNNIGSKSLQWYQQKPGQAPVLVVNDDSDRPSGIPERFSGSNSGNTATLTISRVEAGDEADYYCQVWDTSSDHVVFGGGTKLTVLG
notes: Full human IgG1 (lambda) expressed in CHO cells
Consider B4, for which, in experiment [1], the “Virus neutralization EC50” value is 0.056 nM. In addition, the half-maximal inhibitory concentration (IC50) in [2] worked out at 0.023 nM; in experiment [3] it was 0.022 nM; in experiment [4], 0.016 nM; in [5], 0.012 nM; in [6], 0.01 nM; in [7], 0.013 nM. In addition, the results for the Kd in experiment [8] and in experiment [9] were 0.45 nM and 0.38 nM, respectively. For the same molecule, the “EC50 (read off the curve)” value in experiment [17], in experiment [18] and in [19] was approximately 0.02 nM in each case.

B5: NOV3841 (antibody, human IgG1, lambda, V domains shown)
VH: B4 VH with N53Q, S63T
VL: B4 VL with D50E
notes: as for B4
As to B5, the “Virus neutralization EC50” value in experiment [1] stood at 0.74 nM. Also, the IC50 in [2] is 1.1 nM; in [3] it was 0.35 nM; in experiment [4], 2 nM; in experiment [12] it was more than 67 nM; in experiment [5], 7.8 nM; in experiment [6], 0.079 nM. Further, inhibition in experiment [7] was half-maximal at 0.044 nM (IC50). Further, the “binding of second antibody” value was 145 % of its binding as first antibody in experiment [20], 107 % of its binding as first antibody in experiment [21], 282 % of its binding as first antibody in experiment [22] and 129 % of its binding as first antibody in [23]. Besides, the Kd in [8] stood at 0.91 nM; in [9] it was 0.61 nM. Also, the “EC50 (read off the curve)” value is approximately 0.07 nM in experiment [24] and approximately 0.06 nM in experiment [25].

B6: NOV3842 (antibody, human IgG1, lambda, V domains shown)
VH: B4 VH with S54V, S63T
VL: B4 VL with D50E
notes: as for B4
Take B6: the “Virus neutralization EC50” value in [1] was 0.23 nM. The 50% inhibitory concentration (IC50) in experiment [2] is 0.46 nM; in experiment [3] it was 0.28 nM; in experiment [4] it was 0.75 nM; in experiment [12], more than 67 nM; in [5], 0.12 nM; in experiment [6], 0.042 nM. The molecule further gave a concentration for half-maximal inhibition (IC50) in [7] of 0.084 nM. In addition, the “binding of second antibody” value in experiment [20] was 115 % of its binding as first antibody; in experiment [21] it was 103 % of its binding as first antibody; in experiment [22], 216 % of its binding as first antibody; in [23] it was 118 % of its binding as first antibody. Further, the Kd in experiment [8] came to 0.13 nM; in experiment [9], 0.15 nM. For the same molecule, the “EC50 (read off the curve)” value in [26] was approximately 0.1 nM; in experiment [27] it was approximately 0.05 nM; in experiment [28], approximately 0.05 nM.

B7: NOV3833 (antibody, human IgG1, lambda, V domains shown)
VH: EMQVLESGGGLVQPGGSLRLSCAASGFTFHNYAMSWVRQVPGKGLEWVSSISGSGGSTYYADSVKGQFTISRDNSKNTLYLQMNSLRAEDTAVYYCAKSSILSGGHARVYGIDVWGQGTTVTVSS
VL: QSALTQPPSVSVAPGQTARITCGGNNIGSQSVHWYQQKPGQAPILVVYDDTDRPSGIPARFSGSSSGSTATLTIGRVEAGDEADYYCQVWDSSSDHVVFGGGTKLTVLS
notes: as for B4
For B7, the “Virus neutralization EC50” value in experiment [1] stood at 0.27 nM. In addition, the concentration for half-maximal inhibition (IC50) in experiment [2] is 0.56 nM; in experiment [3], 0.12 nM; in experiment [4] it was 0.12 nM; in [12], more than 67 nM; in [5], 2.8 nM; in experiment [6], 0.025 nM. The half-inhibitory concentration (IC50) in experiment [7] was found to be 0.036 nM. Further, the Kd in experiment [8] worked out at 0.33 nM; in experiment [9], 0.26 nM. For the same molecule, the “EC50 (read off the curve)” value in experiment [29] is approximately 0.04 nM; in [30], approximately 0.05 nM.
